# According to patent US20230167182A1 (BIOSION, published 2023):
# Positions count from the first letter of the chain named.
# T1: human IL6R expressed on cell surface (human, UniProt P08887 20-468)
# T1 construct: whole, on cells; also called cell surface human IL6R; U266 cells expressing human IL6R
# T1 sequence (looked up): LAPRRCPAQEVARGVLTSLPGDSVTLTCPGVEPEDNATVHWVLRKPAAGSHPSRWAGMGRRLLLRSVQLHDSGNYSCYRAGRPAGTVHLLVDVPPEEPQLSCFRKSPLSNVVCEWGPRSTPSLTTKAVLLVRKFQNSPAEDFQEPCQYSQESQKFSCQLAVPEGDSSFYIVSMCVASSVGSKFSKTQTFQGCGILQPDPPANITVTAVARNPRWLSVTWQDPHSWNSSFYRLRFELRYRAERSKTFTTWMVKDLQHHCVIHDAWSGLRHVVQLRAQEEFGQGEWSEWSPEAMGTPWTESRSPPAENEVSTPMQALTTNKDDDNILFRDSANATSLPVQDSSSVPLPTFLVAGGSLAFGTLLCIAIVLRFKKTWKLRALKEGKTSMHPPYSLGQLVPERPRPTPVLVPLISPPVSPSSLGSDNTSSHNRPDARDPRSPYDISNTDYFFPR
# B1: mouse anti-IL6R monoclonal antibody 1H9 (antibody, V domains shown)
# VH: QVQLQQPGAELVKPGASVKLSCKASGYTFTSYWMHWVKLRPGQGLEWIGEINPTNGRTNYYEKFKNRATLTADKSSSTAYMQLSSLTFEDSAVYFCAKFHYSRWYFDVWGTGTTVTVSS
# VL: DIVMTQSQKFMSTSVGDRVSITCKASQNVGTAVVWYQQKPGQSPKLLINPASNRYTGVPDRFTGSGSGTDFTLTISNMQSEDLADYFCQQYSSYPLTFGAGTKLELK
# notes: Mouse hybridoma mAb
# B2: mouse anti-IL6R monoclonal antibody 1H7 (antibody, V domains shown)
# VH: QVQLQQPGTELVKPGASVKLSCKASGYTFTNYWMHWVKQRPGQGLDWIGEINPTNGRTNYNENFKSKATLTVDKSSSTAYMQLSSLTSEDSAVYYCARLNTHYVFDSWGQGTTLTLSS
# VL: EIVLTQSPTTLAASPGEKITFTCSVSSSISSNYLHWYQQKPGFSPKLLISRTSTLASGVPARFSGSGSGTSYSLTIGTMEAEDVATYYCQQGSGIPFTFGSGTKLELK
# notes: Mouse hybridoma mAb
# B3: Tocilizumab (antibody, human IgG1, kappa, V domains shown)
# VH: QVQLQESGPGLVRPSQTLSLTCTVSGYSITSDHAWSWVRQPPGRGLEWIGYISYSGITTYNPSLKSRVTMLRDTSKNQFSLRLSSVTAADTAVYYCARSLARTTAMDYWGQGSLVTVSS
# VL: DIQMTQSPSSLSASVGDRVTITCRASQDISSYLNWYQQKPGKAPKLLIYYTSRLHSGVPSRFSGSGSGTDFTFTISSLQPEDIATYYCQQGNTLPYTFGQGTKVEIKR
# notes: In house made; also called benchmark; Actemra
# B4: humanized antibody hu1H7-V5 (antibody, human IgG1, kappa, V domains shown)
# VH: QVQLVQSGAEVKKPGASVKVSCKASGYTFTNYWMHWVRQAPGQGLEWIGEINPTNGRTNYNENFKSRVTLTVDTSTSTVYMELSSLRSEDTAVYYCARLNTHYVFDSWGQGTLVTVSS
# VL: EIVLTQSPGTLSLSPGERATLSCSVSSSISSNYLHWYQQKPGLSPRLLISRTSTLASGIPARFSGSGSGTEYTLTISRMQSEDFAVYYCQQGSGIPFTFGQGTKLEIKR
# notes: Human IgG1 / kappa
# B5: Chimeric 1H7 (antibody, human IgG1, kappa, V domains shown)
# VH: B2 VH
# VL: EIVLTQSPTTLAASPGEKITFTCSVSSSISSNYLHWYQQKPGFSPKLLISRTSTLASGVPARFSGSGSGTSYSLTIGTMEAEDVATYYCQQGSGIPFTFGSGTKLELKR
# notes: Mouse variable regions on human IgG1 / human kappa constant regions; also called chimeric antibody 1H7
# B6: mouse anti-IL6R monoclonal antibody 3C2 (antibody, V domains shown)
# VH: B2 VH with N31T, M34I, D46E, T54S, N63H, Y80S, E89A, L116V
# VL: B2 VL with L11M, F21I, V25A, S50Y, T54N, A61T, R62H, L107I
# notes: Mouse hybridoma mAb
# B7: mouse anti-IL6R monoclonal antibody 1G1 (antibody, V domains shown)
# VH: B2 VH with T9A, N31S, Q39V, D46E, N63D, D73E, K74S, L83F, S107Y, L116V
# VL: B2 VL with T10I, S50Y, T54N, L107I
# notes: Mouse hybridoma mAb
# B8: mouse anti-IL6R monoclonal antibody 1B5 (antibody, V domains shown)
# VH: B2 VH with T9A, N31S, D46E, T54S, S107Y, L116V
# VL: B2 VL with T10I, S50Y, T54N, L107I
# notes: Mouse hybridoma mAb
# Biological target: T2, human IL6R-Fc protein (human, biotin-labeled in the ELISAs (sites not given))
# T2 construct: In house made; also called biotin-labeled human IL6R-Fc protein
# Assay: benchmark blocking ELISA: antibody pre-incubated with biotin-labeled human IL6R-Fc, added to plate-coated Tocilizumab (competitor: Tocilizumab)
# Description: (§1) ELISA plates were washed once with wash buffer (PBS+0.05% v/v Tween-20, PBST) and then blocked with 200 μl/well blocking buffer (5% w/v non-fatty milk in PBST) overnight at 4° C.
# (§2) The next day, the anti-IL6R antibodies of the disclosure or controls were diluted with biotin labeled human IL6R-Fc protein (SEQ ID NO: 43, 13.6 ng/ml in 2.5% w/v non-fatty milk in PBST), starting at 100 nM with a 5-fold serial dilution, and incubated at room temperature for 40 minutes. […] After incubation at 37° C. for 40 minutes, plates were washed 4 times using wash buffer. Then streptavidin conjugated HRP was added, and the plates were incubated for 40 minutes at 37° C. The plates were finally washed using wash buffer, and added with TMB. The reaction was stopped using 1M […], and the absorbance was read on a microplate reader using dual wavelength mode with 450 nm for TMB and 630 nm as the reference wavelength. The OD (450-630) values were plotted against antibody concentration. Data was analyzed using Graphpad Prism software and IC₅₀ values were reported.
row,IC50,Binder
1,0.323 nM,B1
2,0.105 nM,B2
3,1.58 nM,B3

# Biological target: T2, human IL6R-Fc protein
# Assay: capture ELISA: antibody captured on anti-IgG F(ab')2 coated plate, then biotin-labeled human IL6R-Fc, streptavidin-HRP
# Description: (§3) For the capture ELISA, 96-well micro plates were coated with 2 μg/ml AffiniPure Goat Anti-Mouse IgG, F(ab′)₂ fragment specific (Jackson ImmunoResearch Laboratories, Inc., Cat #115-005-072) in PBS, 100 μl/well, and incubated for 2 hours at 37° C. Plates were washed once with wash buffer (PBS+0.05% v/v Tween-20, PBST) and then blocked with 200 μl/well blocking buffer (5% w/v non-fatty milk in PBST) overnight at 4° C. […] Plates containing captured anti-IL6R antibodies were incubated with biotin-labeled human IL6R-Fc protein (prepared in house, SEQ ID NO: 43, 39.5 ng/ml in 2.5% w/v non-fatty milk in PBST, 100 μl/well) for 40 minutes at 37° C., washed 4 times, and incubated with streptavidin conjugated HRP (1:10000 dilution in PBST, Jackson ImmunoResearch Laboratories, Inc., Cat #016-030-084, 100 μl/well) for 40 minutes at 37° C. After a final wash, plates were incubated with 100 μl/well ELISA substrate TMB (InnoReagents, Cat #TMB-S-002). The reaction was stopped 3-10 minutes later at room temperature with 50 μl/well 1M H₂SO₄, and the absorbance of each well was read on a microplate reader using dual wavelength mode at 450 nm for TMB and 630 nm as the reference wavelength. Then the OD (450-630) values were plotted against antibody concentration. Data was analyzed using Graphpad Prism software and EC₅₀ values were reported.
# For the capture ELISA, 96-well micro plates were coated with 2 μg/ml goat anti-human IgG (AffiniPure Goat Anti-Human IgG, F(ab′)₂ fragment specific, Jackson ImmunoResearch Laboratories, Inc., Cat #109-005-097) instead of goat anti-mouse IgG F(ab′)₂ fragment, 100 μl/well.
# Target sequence in this assay (chain, as listed by the source limits assumed): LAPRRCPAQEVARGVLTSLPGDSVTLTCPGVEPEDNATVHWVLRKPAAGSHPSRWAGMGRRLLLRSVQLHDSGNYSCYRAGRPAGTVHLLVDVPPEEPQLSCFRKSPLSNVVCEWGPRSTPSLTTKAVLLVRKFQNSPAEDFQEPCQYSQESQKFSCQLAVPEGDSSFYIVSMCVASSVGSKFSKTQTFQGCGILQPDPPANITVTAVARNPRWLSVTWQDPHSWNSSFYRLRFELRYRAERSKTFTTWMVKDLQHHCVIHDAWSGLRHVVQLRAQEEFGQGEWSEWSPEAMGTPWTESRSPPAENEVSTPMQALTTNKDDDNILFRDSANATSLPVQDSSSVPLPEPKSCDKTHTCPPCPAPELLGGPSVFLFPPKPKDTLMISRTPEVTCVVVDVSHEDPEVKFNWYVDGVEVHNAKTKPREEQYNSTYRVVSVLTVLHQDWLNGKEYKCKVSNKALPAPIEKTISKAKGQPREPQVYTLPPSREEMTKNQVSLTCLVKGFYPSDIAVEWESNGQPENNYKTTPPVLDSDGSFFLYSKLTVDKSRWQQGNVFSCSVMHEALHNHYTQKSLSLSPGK
row,EC50,Binder
1,0.31 nM,B4
2,0.164 nM,B2
3,0.201 nM,B5
4,0.504 nM,B3

# Biological target: T2, human IL6R-Fc protein
# Assay: benchmark blocking ELISA: antibody pre-incubated with biotin-labeled human IL6R-Fc, added to plate-coated Tocilizumab (competitor: Tocilizumab)
# Remark: another data set of the same source
# Description: as §1, §2
row,IC50,Binder
1,0.708 nM,B6
2,0.481 nM,B7
3,2.23 nM,B3

# Biological target: T2, human IL6R-Fc protein
# Assay: capture ELISA: antibody captured on anti-IgG F(ab')2 coated plate, then biotin-labeled human IL6R-Fc, streptavidin-HRP
# Remark: another data set of the same source
# Description: as §3
# For the capture ELISA, AffiniPure Goat Anti-Human IgG, F(ab′)₂ fragment specific (Jackson Immuno Research, Cat #109-005-097) was used instead of AffiniPure Goat Anti-Mouse IgG, F(ab′)₂ fragment specific, 100 μl/well.
# Target sequence in this assay (chain, as listed by the source limits assumed): as above
row,EC50,Binder
1,0.0553 nM,B2
2,0.0627 nM,B8
3,0.078 nM,B5
4,0.191 nM,B3

# Biological target: T1, human IL6R expressed on cell surface
# Assay: cell-based binding FACS on U266 cells
# Description: The binding activities of the mouse anti-IL6R antibodies to IL6R expressed on cell surface were tested by flow cytometry (FACS). Briefly, human myeloma cells U266 (ATCC® TIB-196™) were harvested from cell culture flasks, washed twice and resuspended in phosphate buffered saline (PBS) containing 2% v/v Fetal Bovine Serum (FACS buffer). 2×10⁵ U266 cells per well were incubated in 96 well-plates with 100 μl of the anti-IL6R antibodies or controls at various concentrations (starting at 40 nM with a 3-fold serial dilution in FACS buffer) for 40 minutes on ice. Cells were washed twice with FACS buffer, and added with 100 μL/well R-Phycoerythrin AffiniPure F(ab′)₂ Fragment Goat Anti-Mouse IgG (H+L) (1:1000 dilution in FACS buffer, Jackson ImmunoResearch Laboratories, Inc., Cat #115-116-146). Following an incubation of 40 minutes at 4° C. in dark, cells were washed three times and resuspended in FACS buffer. Fluorescence was measured using a Becton Dickinson FACS Canto II-HTS equipment. Data was analyzed using Graphpad Prism software and EC₅₀ values were reported.
# For the cell-based binding FACS, R-Phycoerythrin AffiniPure Goat Anti-human IgG Fcγ fragment specific (Jackson ImmunoResearch Laboratories, Inc., Cat #109-115-098) was used instead of R-Phycoerythrin AffiniPure F(ab′)₂ Fragment Goat Anti-Mouse IgG (H+L), 1:1000 dilution in FACS buffer, 100 μl/well.
row,EC50,Binder
1,0.417 nM,B4
2,0.301 nM,B2
3,0.298 nM,B5
4,1.76 nM,B3
